Results: patent US20100287629A1 (published 2010)

Biological target: T1, native human CD4 on the cell surface (human, UniProt P01730 26-458)
T1 construct: whole, on cells; also called CD4 on SupT1 cells; CD4 on human PBL/PBMC
Experiment: flow cytometry on SupT1 cells; half-maximal fluorescence, four-parameter fit
Method: The avidity and affinity determinations described above were performed with recombinant CD4 (rCD4). To determine the avidity of the human monoclonal antibodies for native CD4 (nCD4). […] Specifically, serial dilutions of antibody were incubated with SupT1 cells for 6 hr on ice, washed and detected any bound antibody with FITC-goat anti-human Fcγ.
*Human monoclonal antibodies were incubated in serial dilutions with SupT1 cells for 6 hrs, washed twice and incubated with FITC-conjugated goat anti-human Fcγ antisera, washed and fixed. The Ka was calculated from the concentration of antibody yielding one-half of the maximum fluorescence as determined from a four-parameter fit.

B1: human IgG kappa anti-CD4 monoclonal antibody 6G5 (antibody, V domains shown)
VH: QVQLQQWGAGLLKPSETLSLTCAVYGGSFSGYYWSWIRQPPGKGLEWIGEINHSGSTNYNPSLKSRVTISVDTSKNQFSLKLSSVTAADTAVYYCARVINWFDPWGQGTLVTVSS
VL: DIQMTQSPSSVSASVGDRVTITCRASQDISSWLAWYQHKPGKAPKLLIYAASSLQSGVPSRFSGSGSGTDFTLTISSLQPEDFATYYCQQANSFPYTFGQGTKLEIK
notes: Human IgG1 kappa from hybridoma of an HC2/KCo5/JHD/JCKD mouse; CDR3 VINWFDP (VH4-34, JH5); l.c; also called 6G5.1
With B1 as the binder, how does the Ka read?
Its Ka is 1.9e+09 M⁻¹.

B2: human IgG kappa anti-CD4 monoclonal antibody 10C5 (antibody, V domains shown)
VH: B1 VH
VL: B1 VL
notes: Human IgG1 kappa from hybridoma of an HC2/KCo5/JHD/JCKD mouse; CDR3 VINWFDP (VH4-34, JH5); l.c; same primary B cell as 6G5; also called 10C5.6
How did the Ka turn out when B2 was run?
Its Ka is 1.8e+09 M⁻¹.
